Test results as given in US20190062417A1 (SHANGHAI JW INFLINHIX, published 2019).

Target: T1, TNF receptors on the surface of L929 cells (mouse (L929 cells), UniProt P25118 30-454)
T1 construct: whole, on cells; the Methods stain with anti-TNFR1; also called cell surface receptors; TNF cell membrane surface receptors
T1 sequence (looked up): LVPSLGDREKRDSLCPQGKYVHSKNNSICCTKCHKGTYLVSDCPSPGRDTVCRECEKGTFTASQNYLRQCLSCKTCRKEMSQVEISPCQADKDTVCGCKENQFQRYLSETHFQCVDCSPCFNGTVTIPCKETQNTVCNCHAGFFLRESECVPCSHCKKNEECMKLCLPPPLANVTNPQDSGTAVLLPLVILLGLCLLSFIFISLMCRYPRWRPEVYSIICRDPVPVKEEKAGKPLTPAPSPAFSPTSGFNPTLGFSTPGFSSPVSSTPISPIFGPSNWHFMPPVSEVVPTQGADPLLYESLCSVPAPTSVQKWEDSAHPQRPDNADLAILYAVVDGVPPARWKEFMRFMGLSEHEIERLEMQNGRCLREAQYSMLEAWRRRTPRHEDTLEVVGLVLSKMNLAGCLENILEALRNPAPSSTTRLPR
Experiment: confocal microscopy on L929 cells, 244-12 alone
Protocol: The cells were fixed with 4% paraformaldehyde (in PBS) for 10 min, blocked in a phosphate-buffer containing 0.5% BSA and 0.1% cold water fish-gelatin for 15min and subsequently incubated with rabbit anti-TNFR1 antibodies (Abcam) for 1 hour. […] PBS-washed specimens were then mounted in Gelvatol/DABCO (Sigma-Aldrich). DNA was counterstained with DAPI (Sigma-Aldrich). All samples were analyzed by fluorescent microscopy using a Nikon Eclipse 80i at 60×. Images were acquired with MS-Elements AR3.0 software using a Hamamatsu camera.

binding result: no binding
B1: monoclonal antibody 244-12 (antibody, mouse IgG2b, kappa, V domains shown)
VH: QIQLVQSGPELKKPGETVKISCKASGYTFTNYGMNWVKQAPGKGLKWMGWINTYTGEPTYADDFKGRFAFSLETSANTAYLQINNLRNEGMATYFCARHYRYAWFPYWGQGTLVTVSA
VL: DIQMTQSPASLSASVGETVTITCRASGNIHIYLAWYQQKQGKSPQLLVYNAKTLADGVPSRFSGSGSGTQYSLKINSLQPEDFGSYYCQHFWSIPWTFGGGTKLEIKR
notes: also called antibody of the present invention
